Key:
[1] = molecular target: LSR alpha subunit (68 kDa) (rat) (UniProt Q9WU74); test: ultracentrifugation assay, in vitro translated labeled subunit with LDL, with against without oleate
[2] = molecular target: LSR beta subunit (56 kDa) (rat) (UniProt Q9WU74); test: as above
LSR beta subunit (56 kDa) (rat), sequence (Q9WU74 other isoform, or with tags, fused parts or gaps limits assumed): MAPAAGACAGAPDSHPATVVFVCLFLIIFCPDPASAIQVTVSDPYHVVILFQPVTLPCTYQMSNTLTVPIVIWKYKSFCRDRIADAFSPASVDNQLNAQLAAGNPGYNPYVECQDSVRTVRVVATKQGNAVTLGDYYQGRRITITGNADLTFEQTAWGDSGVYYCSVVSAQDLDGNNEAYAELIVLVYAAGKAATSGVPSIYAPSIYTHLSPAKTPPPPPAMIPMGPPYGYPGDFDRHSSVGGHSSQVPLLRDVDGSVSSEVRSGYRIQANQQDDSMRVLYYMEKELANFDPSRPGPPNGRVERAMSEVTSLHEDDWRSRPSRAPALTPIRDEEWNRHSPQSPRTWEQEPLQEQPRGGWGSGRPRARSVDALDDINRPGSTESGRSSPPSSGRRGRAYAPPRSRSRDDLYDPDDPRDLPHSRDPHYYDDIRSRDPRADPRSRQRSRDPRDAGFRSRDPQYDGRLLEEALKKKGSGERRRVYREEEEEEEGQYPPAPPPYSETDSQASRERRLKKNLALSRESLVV

LSR alpha subunit (68 kDa) (rat), sequence (Q9WU74 whole entry): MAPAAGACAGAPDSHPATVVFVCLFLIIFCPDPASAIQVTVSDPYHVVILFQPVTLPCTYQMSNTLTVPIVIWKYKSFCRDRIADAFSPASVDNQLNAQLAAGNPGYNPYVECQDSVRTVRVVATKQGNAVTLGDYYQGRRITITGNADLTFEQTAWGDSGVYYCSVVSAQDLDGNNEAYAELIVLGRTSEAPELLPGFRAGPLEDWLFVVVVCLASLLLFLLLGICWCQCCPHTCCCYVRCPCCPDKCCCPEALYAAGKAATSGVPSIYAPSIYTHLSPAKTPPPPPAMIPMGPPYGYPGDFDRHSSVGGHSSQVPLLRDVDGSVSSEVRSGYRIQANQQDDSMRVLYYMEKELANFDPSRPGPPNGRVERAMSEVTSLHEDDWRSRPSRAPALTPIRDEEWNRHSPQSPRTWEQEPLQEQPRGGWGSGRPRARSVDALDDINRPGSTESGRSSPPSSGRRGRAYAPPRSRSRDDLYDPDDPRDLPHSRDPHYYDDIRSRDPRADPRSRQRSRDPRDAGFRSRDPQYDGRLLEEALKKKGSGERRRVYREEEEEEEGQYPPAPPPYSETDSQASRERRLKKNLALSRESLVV

- fold enhancement of binding in the presence of oleate [1]: 2 fold
- fold enhancement of binding in the presence of oleate [2]: 5 fold
Substance: LDL (low density lipoprotein) (ligand)
